Biological target: 新型冠状病毒S1蛋白 (纯化) (SARS-CoV-2, UniProt P0DTC2 14-685)

B1: 人源抗新冠病毒中和性抗体nCoV-61 全抗体IgG (antibody, V domains shown)
VH: EVQLVESGGGLVQPGGSLRLSCEASEIIVNRNYMNWVRQAPGKGLEWVSIIYPGGSTFYADSVKGRFTISRDNSKNTMYLQMNSLRAEDTAVYYCARSYGDFYVDFWGQGTLVTVSS
VL: QSVLTQPPSVSAAPGQKVTISCSGSSSNIGNNYVSWYQQLPGTAPKLLIYDNNKRPSGIPDRFSGSKSGTSATLGITGLQTGDEADYYCGTWDSSLSAWVFGGGTKLTVLG
Kd: 3.33 pM
